The text below walks through data of doi:10.1101/2020.05.22.111005 (bioRxiv, 2020).

For assay [1], the target named is T1, prefusion-stabilized trimeric SARS-CoV-2 S protein ectodomain (S2Pecto) (SARS-CoV-2, Wuhan-Hu-1 reference spike, UniProt P0DTC2, stabilised). Nature of the assay: ELISA. (In general: An ELISA detects its analyte on a solid surface through an enzyme-linked reagent.)
The target in assay [2] is SARS-CoV-2 S receptor-binding domain (SRBD), monomeric, wild type (SARS-CoV-2, Wuhan-Hu-1 reference spike, UniProt P0DTC2). Kind of assay: BLI. For orientation: Biolayer interferometry detects binding as a change in optical thickness at a sensor tip.
Assay [3] has as its target T1, prefusion-stabilized trimeric …. Kind of assay: negative-stain electron microscopy.

B1: COV2-2196 (human mAb) (antibody, V domains shown)
VH: QMQLVQSGPEVKKPGTSVKVSCKASGFTFMSSAVQWVRQARGQRLEWIGWIVIGSGNTNYAQKFQERVTITRDMSTSTAYMELSSLRSEDTAVYYCAAPYCSSISCNDGFDIWGQGTMVTVSS
VL: not shown
Consider B1, for which the binding result in assay [1] and in assay [2] was “binds” in each case.

B2: Fab COV2-2196 (Fab, V domains shown)
VH: B1 VH
VL: not shown
With B2, in assay [3], the binding result was “binds”.

B3: COV2-2165 (human mAb) (antibody, V domains shown)
VH: EVQLVESGGGLVQPGGSLRLSCAASGLTVRSNYMTWVRQTPGKGLEWVSVIYSGGSTFYADSVKGRFTISRDNSKNTVYLQMNSLRAEDTAVYYCARDLVTYGLDVWGQGTTVTVSS
VL: DIQLTQSPSFLSASVGDRVTITCRASQGISNYLAWYQQKPGTAPNLLIYAASTLQSGVPSRFSGSGSGTEFTLTISSLQPEDFATYYCQLLNSHPLTFGQGTRLEIK
On to B3, for which, in assay [2], the binding result is listed as “binds”.

B4: Fab COV2-2165 (Fab, V domains shown)
VH: B3 VH
VL: B3 VL
For B4, in assay [3], the binding result is “binds”.
